pKd: −log10 of the molar value.

Common to all, as to test: fluorescence polarisation; fluorescence anisotropy; Rtt103p CID titrated into 10 nM N-terminally FAM-labelled CTD peptide; 10°C; 35 mM KH2PO4, 100 mM KCl, pH 6.8; 1:1 model with non-specific binding (DynaFit)
Assay [1] concerns the target FAM-….
The target of assay [2] is FAM-PSYSP(pT)….
In assay [3] the target is FAM-PSYSP(pT)SPSYSP(pT)SPS.
Assay [4] addresses FAM-PSY(pS)….
In assay [5] the target is FAM-PSY(pS)P(pT)….

Take “Rtt103p CTD-interacting domain (CID) (3-131-6xHIS) (from UniProt Q05543 3-131) (domain or fragment)”: the pKd in assay [1] was 4.19; in assay [2], 4.82; in assay [3], 5.22; in assay [4], 5.22; in assay [5], 4.37.
